Measured values published in patent US20140120109A1 (Regeneron, published 2014).
Numbering of substitutions follows the chain as printed. In names and notes the source's numbering stands.

T1: cynomolgus monkey TL1A, soluble, CHO-expressed, residues 72-251 of SEQ ID NO:248 with N-terminal His6-tag (cynomolgus monkey (Macaca fascicularis), UniProt O95150 72-251 (human entry))
T1 construct: also called MfTL1A; MfTL1A (CHO)
T1 chain: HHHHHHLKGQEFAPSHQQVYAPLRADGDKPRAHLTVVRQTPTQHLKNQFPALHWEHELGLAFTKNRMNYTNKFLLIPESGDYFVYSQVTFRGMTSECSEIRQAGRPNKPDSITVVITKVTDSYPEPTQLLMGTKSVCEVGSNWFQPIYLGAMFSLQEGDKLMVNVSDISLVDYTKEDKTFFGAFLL

T2: human TL1A, soluble, CHO-expressed, residues 72-251 of SEQ ID NO:244 with N-terminal His6-tag (human, UniProt O95150 72-251)
T2 construct: also called hTL1A; hTL1A (CHO)
T2 sequence: T1 chain with L45F, V84I

T3: cynomolgus monkey TL1A, soluble, E. coli-expressed, residues 72-251 of SEQ ID NO:248 (cynomolgus monkey (Macaca fascicularis), UniProt O95150 72-251 (human entry))
T3 construct: with or without N-terminal Met; also called MfTL1A (E. Coli)
T3 chain: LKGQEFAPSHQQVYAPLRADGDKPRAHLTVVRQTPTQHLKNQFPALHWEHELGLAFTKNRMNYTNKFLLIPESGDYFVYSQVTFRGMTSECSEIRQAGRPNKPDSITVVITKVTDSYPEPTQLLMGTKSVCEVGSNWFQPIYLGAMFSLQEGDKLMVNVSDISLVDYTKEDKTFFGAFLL

T4: Fhm, hTL1A(Q167R), soluble, CHO-expressed, residues 72-251 of SEQ ID NO:246 (human, UniProt O95150 72-251)
T4 construct: also called Fhm (CHO); FHM (CHO)
T4 chain: T1 chain with L45F, V84I, Q102R

T5: Fhm, hTL1A(Q167R), soluble, E. coli-expressed, residues 72-251 of SEQ ID NO:246 (human, UniProt O95150 72-251)
T5 construct: with or without N-terminal Met
T5 chain: T3 chain with L39F, V78I, Q96R

T6: mouse TL1A, soluble, E. coli-expressed, residues 76-252 of SEQ ID NO:250 (mouse, UniProt Q5UBV8 76-252)
T6 construct: with or without N-terminal Met; also called mTL1A (E. Coli)
T6 sequence: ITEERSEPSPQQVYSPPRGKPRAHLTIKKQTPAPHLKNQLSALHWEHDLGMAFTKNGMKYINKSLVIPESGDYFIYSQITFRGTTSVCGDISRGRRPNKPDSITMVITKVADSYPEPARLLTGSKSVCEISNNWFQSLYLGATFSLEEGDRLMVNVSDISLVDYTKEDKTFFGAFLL

T7: human DR3, full-length, expressed on HEK293 NFkB-luciferase reporter cells (human, UniProt Q93038 25-417)
T7 sequence: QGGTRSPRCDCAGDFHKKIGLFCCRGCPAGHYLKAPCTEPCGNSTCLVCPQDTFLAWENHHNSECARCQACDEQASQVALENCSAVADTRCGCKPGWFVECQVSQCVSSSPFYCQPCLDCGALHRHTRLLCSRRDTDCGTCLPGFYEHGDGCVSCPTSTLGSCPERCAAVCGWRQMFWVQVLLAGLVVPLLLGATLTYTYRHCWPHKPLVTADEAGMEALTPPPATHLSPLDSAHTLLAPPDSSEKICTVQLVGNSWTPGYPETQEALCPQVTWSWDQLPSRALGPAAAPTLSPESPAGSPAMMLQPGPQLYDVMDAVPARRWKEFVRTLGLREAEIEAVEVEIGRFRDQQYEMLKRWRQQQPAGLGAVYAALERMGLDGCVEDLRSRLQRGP

B1: H2M1817N (antibody, V domains shown)
VH: QVQLQQWGAGLLKPSETLSLTCAVSGGSFSDYFWTWIRQPPGKGLEWIGEISHSGRTNYNPSLKSRVTISVDTSMSQFSLKMTSVTAADSAVYYCARDYPNWVFDYWGQGTLVTVSS
VL: EIELTQSPGTLSLSPGEGATLSCRASQSVFNSYLAWYQQKPGQAPRLLIYGASRRATGIPDRFSGSGSGTDFTLTISRLEPGDFAVYFCQQYGNSPLTFGGGTKVEIK
notes: chimeric hybridoma antibody: human variable regions, mouse constant regions (mouse Fc)
B2: H2M1681N (antibody, V domains shown)
VH: EVQLLESGGGLVQPGKSLRLSCAVSGFTFSTYGMNWVRQAPGKGLEWVSSISGTGRTTYHADSVQGRFTVSRDNSKNILYLQMNSLRADDTAVYFCTKERGDYYYGVFDYWGQGTLVTVSS
VL: DIQMTQSPSTLSASVGDRVTITCRASQTISSWLAWYQQTPEKAPKLLIYAASNLQSGVPSRFSGSGSGTEFTLTISSLQPDDFATYYCQQYHRSWTFGQGTKVEIT
B3: full length human TL1A expressed on HEK293 cells (ligand)
chain: MAEDLGLSFGETASVEMLPEHGSCRPKARSSSARWALTCCLVLLPFLAGLTTYLLVSQLRAQGEACVQFQALKGQEFAPSHQQVYAPLRADGDKPRAHLTVVRQTPTQHFKNQFPALHWEHELGLAFTKNRMNYTNKFLLIPESGDYFIYSQVTFRGMTSECSEIRQAGRPNKPDSITVVITKVTDSYPEPTQLLMGTKSVCEVGSNWFQPIYLGAMFSLQEGDKLMVNVSDISLVDYTKEDKTFFGAFLL
B4: full-length cynomolgus monkey TL1A expressed on HEK293 cells (ligand)
chain: B3 chain with R34C, F69L, A71D, F110L, I149V
B5: full-length Fhm, human TL1A(Q167R), expressed on HEK293 cells (ligand)
chain: B3 chain with Q167R
B6: H2M1805N (antibody, V domains shown)
VH: QVQLQQWGAGLLKPSETLSLTCAVYGGSFTGFYWSWIRQPPGKGLEWIGEINHRGNTNYNPSLKSRVTMSVDTSKNQFSLNMISVTAADTAMYFCASPFYDFWSGSDYWGQGTLVTVSS
VL: DIMLTQTPLTSPVTLGQPASISCKSSQSLVHSDGNTYLSWLQQRPGQPPRLLFYKISNRFSGVPDRFSGSGAGTDFTLKISRVEAEDVGVYYCMQATQFPLTFGGGTKVEIK
notes: as for B1

Legend:
[1] = biological target: T1, cynomolgus monkey TL1A, soluble, …; assay: ELISA, blocks MfTL1A (500 pM) binding hDR3-Fc
Experimental: (§1) The ability of antibodies to block human TL1A binding to its cognate receptors, the DR3 and DcR3 receptors, was measured using a competition sandwich ELISA. In addition, blocking of a human TL1A variant FHM (human TL1A Q167R) and the cynomolgus monkey (Macaca fascicularis) TL1A (MfTL1A) protein binding to the human DR3 or DcR3 receptors was measured in the same manner. Constant amounts of biotinylated human TL1A or FHM (both expressed with a 6-His tag in CHO cells) or biotinylated MfTL1A (expressed in CHO cells) were separately titrated with varying amounts of antibodies. The antibody-protein complexes were incubated in solution (1 hr, 25° C.) and then transferred to microtiter plates coated with human DR3 (hDR3) or human DcR3 (hDcR3) expressed as human IgG1 Fc fusion proteins. After one hour at 25° C. the wells were washed, and bound human or monkey TL1A was detected with streptavidin conjugated with horseradish peroxidase (HRP). Wells were developed with a TMB solution to produce a colorimetric reaction and quenched with aqueous sulfuric acid before reading absorbance at 450 nm on a Perkin-Elmer Victor X5 plate reader. A sigmoidal dose-response curve was fit to the data using the Prism™ data analysis package. […] Both fully human anti-hTL1A mAbs and comparator antibodies, i.e., control mAb1 (an anti-hTL1A antibody with heavy and light chain variable domains having the amino acid sequences corresponding to SEQ ID NOS:21 and 27, respectively, of US 2009/0280116) and control mAb3 (an anti-hTL1A antibody with heavy and light chain variable domains having the amino acid sequences corresponding to SEQ ID NOS:57 and 48, respectively, of US 2009/0280116), were included in the study. NB: No binding under the conditions tested; NT: Not tested. Concentrations of biotinylated soluble ligands: (1) 150 pM; (2) 500 pM; (3) 10 pM; and (4) 50 pM.

[2] = biological target: T2, human TL1A, soluble, CHO-expressed, …; assay: ELISA, blocks hTL1A (150 pM) binding hDR3-Fc
Experimental: as §1

[3] = biological target: T2, human TL1A, soluble, CHO-expressed, …; assay: ELISA, blocks hTL1A (10 pM) binding hDcR3-Fc
Experimental: as §1

[4] = biological target: T3, cynomolgus monkey TL1A, soluble, E. …; assay: SPR 37C, mAb captured
Experimental: (§2) Measurements were conducted on a T100 BIACORE™ instrument. […] Kinetic association (kₐ) and dissociation (kd) rate constants were determined by fitting the data to a 1:1 binding model using BIAevaluation 4.1 curve fitting software (BIAcore Life Sciences). Molar concentrations of TL1A/Fhm used in the data fitting assumed a monomeric state for TL1A in solution. Binding dissociation equilibrium constants (KD) and dissociative half-lives (t_{1/2}) were calculated from the kinetic rate constants as: KD (M)=kd/kₐ; and t_{1/2} (min)=[In2/(60*kd)].

[5] = biological target: T4, Fhm, hTL1A(Q167R), soluble, …; assay: ELISA, blocks FHM (150 pM) binding hDR3-Fc
Experimental: as §1

[6] = biological target: T5, Fhm, hTL1A(Q167R), soluble, E. …; assay: SPR 25C, mAb captured
Experimental: as §2

[7] = biological target: T3, cynomolgus monkey TL1A, soluble, E. …; assay: SPR 25C, mAb captured
Experimental: as §2

[8] = biological target: T1, cynomolgus monkey TL1A, soluble, …; assay: ELISA, blocks MfTL1A (50 pM) binding hDcR3-Fc
Experimental: as §1

[9] = biological target: T4, Fhm, hTL1A(Q167R), soluble, …; assay: ELISA, blocks FHM (10 pM) binding hDcR3-Fc
Experimental: as §1

[10] = biological target: T6, mouse TL1A, soluble, E. coli-expressed, …; assay: SPR 25C, steady state
Experimental: as §2, with “Binding dissociation equilibrium constants (KD) and dissociative half-lives (t_{1/2}) were calculated from the kinetic rate constants as: KD (M)=kd/kₐ; and t_{1/2} (min)=[In2/(60*kd)].” left out

[11] = biological target: T4, Fhm, hTL1A(Q167R), soluble, …; assay: ELISA, blocks FHM (10 pM) binding hDcR3-Fc; blocking of FHM binding to DcR3
Experimental: as §1

[12] = biological target: T7, human DR3, full-length, expressed on …; assay: cell-based or functional assay

Row | Binder | IC50 [1] [nM] | IC50 [2] [nM] | IC50 [3] [nM] | Kd [4] [nM] | t1/2 [4] [min] | IC50 [5] [nM] | Kd [6] [nM] | t1/2 [6] [min] | Kd [7] [nM] | t1/2 [7] [min] | IC50 [8] [nM] | IC50 [9] [nM] | binding result [10] | IC50 [11] [nM] | binding result [6] | EC50 (cells), NFkB-luciferase reporter [12] [cells]
1 | B1 | 0.137 | 0.154 | 0.89 | 1 | 30 | 0.249 | 0.451 | 57 | 1.25 | 37 | 0.776 | 0.666 | no binding (tested: up to 100 nM) |  |  | 
2 | B2 | 0.061 | 0.037 | 0.013 | 1.5 | 14 |  |  |  | 0.546 | 54 | 0.149 |  | no binding (tested: up to 100 nM) | 0.234 | no binding (tested: up to 100 nM) | 
3 | B3 |  |  |  |  |  |  |  |  |  |  |  |  |  |  |  | 23500
4 | B4 |  |  |  |  |  |  |  |  |  |  |  |  |  |  |  | 8460
5 | B5 |  |  |  |  |  |  |  |  |  |  |  |  |  |  |  | 47900
6 | B6 | 0.013 | 0.006 | 0.012 | 0.439 | 36 |  |  |  | 0.345 | 67 | 1.14 |  | no binding (tested: up to 100 nM) | 2.24 | no binding (tested: up to 100 nM) | 
